Source: US20160002672A1, “PRODUCTION OF ISOPRENE, ISOPRENOID, AND ISOPRENOID PRECURSORS USING AN ALTERNATIVE LOWER MEVALONATE PATHWAY” (DANISCO US INC., priority 2012, published 2016)
Where “and” joins values, the source holds several entries; their conditions need not be identical. Equal values may be shown once.

Tests used:
[1] = In vitro metabolite measurement, substrate conversion by crude E. coli lysate, substrate MVA; type: biochemical; settings: crude extract from E. coli DH10b overexpressing S378Pa3-2
Procedure: (§1) In vitro assays were done with crude extracts from E. coli DH10b overexpressing pMCM2212. […] Negative control assays were done with extracts of E. coli harboring pTrcHis2b without insert. Substrates for in vitro conversions were mevalonate (MVA), mevalonate phosphate (MVP) also referred to as mevalonate 5-phosphate, mevalonate diphosphate (MVPP) also referred to as mevalonate 5-pyrophosphate, and isopentenyl phosphate (IP). Substrate conversion and product formation was analyzed by LC/MS.
(§2) Mass spectrometric analysis of metabolites was performed using a TSQ Quantim triple quadrupole instrument (Thermo Scientific). System control, data acquisition, and data analysis were done with XCalibur and LCQuan software (Thermo Scientific). About 10 μL samples were applied to a C18 Synergi MAX-RP HPLC column (150×2 mm, 4 uM, 80 A, Phenomenex) equipped with the manufacturer-recommended guard cartridge. The column was eluted with a gradient of 15 mM acetic acid+10 mM tributylamine in MilliQ-grade water (solvent A) and LCMS-grade methanol from Honeywell, Burdick & Jackson (solvent B). […] Concentrations of metabolites in cell extracts were determined based on calibration curves obtained by injection of commercial standards dissolved in 20% methanol/50 mM NH4Ac buffer (pH 7.0) to 0.5 ppm to 50 ppm final concentration. […]

[2] = In vitro metabolite measurement, substrate conversion by crude E. coli lysate, substrate MVP; type: biochemical; settings: crude extract from E. coli DH10b overexpressing S378Pa3-2
Procedure: as §1, §2

[3] = In vitro metabolite measurement, substrate conversion by crude E. coli lysate, substrate MVPP; type: biochemical; settings: crude extract from E. coli DH10b overexpressing S378Pa3-2
Procedure: as §1, §2

[4] = Kinetic characterization of decarboxylases (coupled spectrophotometric assay), diphosphomevalonate as substrate; type: biochemical; settings: 34° C., 5 mM ATP, 10-250 μM (R)-diphosphomevalonate; for kcat ± SD, Diphosphomevalonate: * using 1 mM substrate; for Km: read-out: KM ± SD, Diphosphomevalonate
Procedure: (§3) PMevDCs were incubated in the presence of mevalonate, phosphomevalonate, diphosphomevalonate, ATP, MgCl2 and the products of the reactions were confirmed by LC-MS. Mevalonate decarboxylase (MVD) from Saccharomyces cerevisiae was used as a reference. The catalytic activities of the decarboxylases were measured using a modified spectrophotometric assay that coupled ADP formation to pyruvate synthesis and reduction to lactate. The initial rate of disappearance of NADH was monitored at 340 nm on a SpectraMax M5 (Molecular Devices) to measure the reaction rate catalyzed by the PMevDCs. Samples for reaction rate studies contained 0.8 mM phosphoenolpyruvate, 0.05 mM DTT, 0.32 mM NADH, 10 mM MgCl2, 4 U lactate dehydrogenase, 4 U pyruvate kinase, 5 mM ATP and 10-250 μM (R)-phosphomevalonate or 10-250 μM (R)-diphosphomevalonate. All reactions were performed at 34° C. Reaction rate data was processed using Microsoft Excel and kinetic parameters were determined using Kaleidagraph.

[5] = In vitro metabolite measurement, substrate conversion by crude E. coli lysate, substrate IP; type: biochemical; settings: crude extract from E. coli DH10b overexpressing S378Pa3-2
Procedure: as §1, §2

[6] = SDS-PAGE analysis of His-tagged and TEV protease cleaved PMevDCs and IPKs (solubility); type: physicochemical; settings: FIG. 9
Procedure: Strains MCM2257, MCM2258, MCM2259, MCM2260, MCM2261, and MCM2262 were inoculated in 1 liter of LB medium containing the appropriate antibiotic and incubated at 34° C. for 7 hours from overnight cultures grown at 34° C. in LB broth containing the appropriate antibiotic (Table 7). Cultures at an OD 0.5-0.7 were induced with 200 μM IPTG. After induction, cells were harvested by centrifugation at 10000×g for 10 minutes. After removal of the supernatant, the cell pellets were resuspended in 40 mL lysis buffer containing 50 mM KPO4, pH 8.0, 0.3 M NaCl, 0.02 mM imidizole, 1 mg/mL lysozyme, and 1 mg/mL DNAase. The cells were lysed using a french pressure cell at 14,000 psi and the cell lysate was centrifuged at 50,000×g for 1 hour. The supernatant was collected, passed over a Ni-affinity resin before the resin was washed with 10 column volumes of lysis buffer containing 50 mM imidazole. The protein was eluted with 5 column volumes of lysis buffer containing 250 mM imidizole. Collected fractions were concentrated and passed over PD-10 columns for buffer exchange and the final collected protein samples were >95% pure according to SDS-PAGE analysis. The purified samples were incubated with TEV protease overnight at 4° C. to remove histidine tags from the purified proteins. The digested samples were subsequently passed over Ni-affinity resin and the flow-through was collected and analyzed by SDS-PAGE.
H. aurantiacus PMevDC (lanes 2 and 3), H. aurantiacus IPK (lanes 4 and 5), and S378Pa3-2 PMevDC (lanes 6 and 7) were all soluble whether they were expressed with an attached His-tag or without a His-Tag (FIG. 9).

[7] = Kinetic characterization of decarboxylases (coupled spectrophotometric assay), phosphomevalonate as substrate; type: biochemical; settings: 34° C., 5 mM ATP, 10-250 μM (R)-phosphomevalonate, * using 1 mM substrate
Procedure: as §3

screening host V. 05 = assay: Activity-based screening for PMevDC in MVA-auxotrophic screening host; type: cell-based, E. coli; settings: for growth / complementation of the lower MVA pathway in screening host in presence of MVA: 500 μM MVA
[8] = listed as Herpetosiphon aurantiacus ATCC 23779 PMevDC

| Molecule | use of MVA as substrate [1] | activity of crude extract on MVP [2] | activity of crude extract on MVPP [3] | kcat ± SD, Diphosphomevalonate [4] | Km [4] [µM] | use of IP as substrate [5] | solubility of expressed enzyme with or without His-tag [6] | kcat ± SD, Phosphomevalonate [7] | growth / complementation of the lower MVA pathway in screening host in presence of MVA (screening host V. 05) | growth / complementation of the lower MVA pathway in screening host in presence of MVA (screening host V. 05; listed as cds#2) | growth in presence of Fosmidomycin (screening host V. 05; Fosmidomycin 32 μg/ml, 500 μM MVA supplied) | kcat ± SD, Diphosphomevalonate [4, 8] | kcat ± SD, Phosphomevalonate [7, 8] [s⁻¹] |
| --- | --- | --- | --- | --- | --- | --- | --- | --- | --- | --- | --- | --- | --- |
| S378Pa3-2 PMevDC: phosphomevalonate decarboxylase isolated from a soil metagenomic library, SEQ ID NO: 18 (protein, Isolated from a metagenomic library constructed from soil samples) MDYYYRVINNNEIPMKSPEFLEVSALAHPNIAFIKYWGNRDNDLRLPCNGSLSMNLSGLETKTSVQFDPSLSADQFKLSGKPIEWDALRRVSDFLEIVRDLAGISFFAKVESENSFPSGAGIASSASAFAALALAASKAAGLSLDEEALSRLARRGSGSACRSIPDGFVEWQAGSTDQDSFAWSIAPADHWDLVDLICVLNSEHKTVGSTGGHALASTSDLHLLRQERVEERIEICRKAILDRDFEHFASVVEEDSNLMHAVMRTSKPPLNYWLPETEVILWKVIHWRKKGIPVCSTVDAGPNVHVLTLSSEAEKVEALLKECPGVQSIFKARAGQGAQLI | not used as substrates | activity on MVP | some activity on MVPP | 1.09 s⁻¹ and 1.09 ± 0.09 s⁻¹ | 22 | not used as substrates | soluble | 2.9 s⁻¹ and 2.9 ± 0.5 s⁻¹ | sustained growth | able to complement the lower MVA pathway | grew unrestricted | – | – |
| S. cerevisiae MVD: Mevalonate decarboxylase (MVD) from Saccharomyces cerevisiae used as a reference (protein, UniProt P32377 1-396, looked up) Diphosphomevalonate …: MTVYTASVTAPVNIATLKYWGKRDTKLNLPTNSSISVTLSQDDLRTLTSAATAPEFERDTLWLNGEPHSIDNERTQNCLRDLRQLRKEMESKDASLPTLSQWKLHIVSENNFPTAAGLASSAAGFAALVSAIAKLYQLPQSTSEISRIARKGSGSACRSLFGGYVAWEMGKAEDGHDSMAVQIADSSDWPQMKACVLVVSDIKKDVSSTQGMQLTVATSELFKERIEHVVPKRFEVMRKAIVEKDFATFAKETMMDSNSFHATCLDSFPPIFYMNDTSKRIISWCHTINQFYGETIVAYTFDAGPNAVLYYLAENESKLFAFIYKLFGSVPGWDKKFTTEQLEAFNHQFESSNFTARELDLELQKDVARVILTQVGSGPQETNESLIDAKTGLPKE | – | – | – | 11.6 s⁻¹ and 11.6 ± 0.6 s⁻¹ | 44 | – | – | – | – | – | – | – | – |
| H. aurantiacus IPK: Herpetosiphon aurantiacus isopentenyl phosphate kinase, SEQ ID NO: 19, Genbank YP_001545053 (protein, listed as Herpetosiphon aurantiacus) MNKPIFIKLGGSMLTDKTTAERLVDQTLKQVVTDLSAWRQAHPNQPILLGHGGGSFGHYWAERYQTAQGIINEQSWWGVARVADAMARLNRAVVGACLDADLPAIGIQPMASSLANAGEIQQIGSQPLATLLAAGTIPVIYGDVLLDVAQGCTIASTERIFSALVGPLQPTQIILLGEQAVYDADPRQHADAQPIPLINRTNYATIIARLGGSHGVDVTGGMRNKVEAMWQLVQQAPQLEIWICGPQQLQSALSGQLNGPGTIIKLD | – | – | – | – | – | – | soluble | – | – | – | – | – | – |
| Herpetosiphon PMevDC: Herpetosiphon aurantiacus phosphomevalonate decarboxylase, SEQ ID NO: 16, Genbank YP_001544383 (protein, listed as Herpetosiphon aurantiacus) MKQLSHAATAVACANIAFIKYWGQHDSQLTLPTNGSISMNLDGCLTETTVQCLPEAVDDSVWLALSGGEEVQAKGRQFERVIQQIERLRQLAGVTERVEVRSRNNFPSDAGIASSAAAFAALTRAAASAFRLELDEAELSRLTRLSGSGSACRSIPAGFVEWYNDGTHAGSYAAQIAPPEHWNLVDIVAVISTEAKHVASTSGHSVATTSPYFSVRLEGIEQRLADVRQGILERDIERLGRASEADAMSMHVIAMTAQPSTMYWLPGTLAVMQAVQRWRAQDNLQSYWTIDAGPNVHVICEAKDAPEVEARLCELDAVQWTIVNGAGPEARLVG | – | – | – | <0.02* s^−1 | – | – | soluble | 3.3 ± 0.2 s⁻¹ | – | – | – | less than 0.02 s^−1 | 3.3 |
